Results taken from US8252583B2, “Method for inducing differentiation into cardiomyocytes using G-CSF” (Keiichi Fukuda, priority 2007, dated 2012).

Key:
human ES cells = human ES cells treated with 5-azacytidine; rises from 15%; cited from earlier work
cardiomyocyte markers [1] = test: Expression of cardiomyocyte markers in ES cell-derived EBs (RT-PCR, immunostaining); assay type: cell-based, mouse
From the text: Next, EBs at day 9 were used and analyzed for the expression of various cardiomyocyte-specific genes by RT-PCR and immunostaining. The cardiomyocyte markers used in RT-PCR were Tbx-5, MEF-2c (muscle enhancement factor-2c), Nkx2.5, GATA-4, βMHC (β myosin heavy chain), MLC-2v (myosin light chain-2v), αMHC (α-myosin heavy chain), BNP (brain natriuretic peptide), ANP (atrial natriuretic peptide) and GAPDH (glyceraldehyde-3-phosphate dehydrogenase). The cardiomyocyte markers used in immunostaining were α-actinin, actin, troponin 1-C, MF20 and ANP. […] Further, to study the optimum concentration of G-CSF, G-CSF was added at various concentrations (0.25, 0.75, 2.5, 7.5, 25, 75 ng/ml) to EBs at day 6, followed by RT-PCR to analyze the expression of each cardiomyocyte marker. It should be noted that EBs prepared at two cell densities, H ([…]) and L (5×10^4 cell/ml), were used in this test. […] To confirm a possibility that the promoting effect of G-CSF treatment to induce myocardial differentiation from ES cells would be mediated by the endogenous G-CSF signaling pathway, anti-G-CSF antibody (R&D systems) was added to medium simultaneously with G-CSF treatment and studied for its effect. EBs at day 6 were treated with G-CSF (7.5 ng/mL) in the presence of anti-G-CSF antibody at various concentrations (0, 1, 3, 9 ng/ml) to study the effect of anti-G-CSF antibody using various cardiomyocyte markers. […] To test the proliferation-promoting effect of G-CSF on ES cell-derived cardiomyocytes, EBs at day 6 were used to prepare G-CSF (7.5 ng/mL)-treated and untreated groups and a G-CSF+nocodazole (0.2 μg/mL)-treated group. […] These three groups were tested for various cardiomyocyte markers by RT-PCR.

G-CSFR expression = G-CSFR expression in EBs derived from ES cells treated with Noggin (RT-PCR, immunostaining); assay type: cell-based, mouse
Method: (§1) In the experiments described below, EB3 cells (kindly provided by Dr. Hitoshi Niwa of Riken, Japan) and R1 cells (kindly provided by Dr. Andrew Nagy of Mount Sinai Hospital, Canada) were used as ES cells. These ES cells were maintained on gelatin-coated plates in Glasgow Minimum Essential Medium (GMEM; Sigma) containing 10% fetal bovine serum, 2 mM L-glutamine, 0.1 mM nonessential amino acid solution, 1 mM sodium pyruvate, 0.1 mM 2-mercaptoethanol and 2000 U/mL leukemia inhibitory factor (LIF) (ESGRO; Chemicon).
Suspension culture was performed as follows to form EBs from ES cells. ES cells were cultured for 3 days on gelatin-coated plates in α-MEM medium containing 10% fetal bovine serum, 2 mM L-glutamine, 0.1 mM nonessential amino acid solution, 1 mM sodium pyruvate, 0.1 mM 2-mercaptoethanol, 2000 U/mL leukemia inhibitory factor and 0.15 μg/ml Noggin (Noggin-Fc, R&D). The ES cells were then dispersed into single cells by treatment with a trypsin solution, and further cultured on uncoated Petri dishes using a three-dimensional culture system in the same differentiation medium as used above (except being free from LIF) to form spheroids, from which EBs (embryoid bodies) were induced. […]

cardiomyocyte markers [2] = test: Cardiomyocyte marker expression in CMES cells (RT-PCR, immunostaining); assay type: cell-based, common marmoset; settings: for expression of cardiomyocyte markers (RT-PCR, FIG. 21b): CMES cells
Method: (§2) To test the effect of G-CSF on primate cardiogenesis, common marmoset ES (CMES) cells (#20) (Sasaki et al., Stem Cells 23, 1304-1313 (2005)) were used. CMES cells were maintained on a layer of mitotically inactivated mouse embryonic fibroblasts (MEFs) in Knockout DMEM (GIBCO) medium supplemented with 20% Knockout Serum Replacement (KSR; GIBCO), 1 mM L-glutamine (GIBCO), 0.1 mM MEM nonessential amino acids (GIBCO), 0.1 mM β-mercaptoethanol (2-ME; Sigma), 10 ng/ml fibroblast growth factor (bFGF; Invitrogen) and 10 ng/ml human leukemia inhibitory factor (hLIF; Alomone labs). CMES cells were passaged every 5 days to maintain their undifferentiated state.
(§3) Undifferentiated CMES cells were removed from the MEF feeder layer, dissociated into small colonies with a dissociation solution for human and monkey ES cells (ReproCELL. JAPAN), and then cultured to form EBs in suspension culture using HydroCell culture plates (CellSeed, JAPAN) in medium free from bFGF and hLIF.

[3] = system: fetal myocardial proliferation; test: In vivo effect of G-CSF on cardiogenesis: BrdU immunostaining of fetal heart sections; set-up: species or system mouse
Method: (§4) At 9.0 days of pregnancy, mice were laparotomized and G-CSF (100 ng/kg) or PBS (phosphate-buffered physiological saline; serving as a control) was directly administered into their uteri. At 9.5 days of pregnancy, the mice were then administered with BrdU (bromodeoxyuridine) by the intraperitoneal route. BrdU is incorporated during DNA synthesis and allows proliferation assessment by immunostaining. At 12.5 days of pregnancy, fetuses were collected to prepare heart sections, which were then analyzed in the same manner as shown for immunostaining in Example 1(2).
Moreover, for quantification of the myocardial proliferation-promoting effect, the BrdU labeling index was calculated by the following equation. It should be noted that wild-type mice were used in this test, which were administered with BrdU at 10.5 days of pregnancy and analyzed at 12.5 days of pregnancy. BrdU labeling index=BrdU positive nuclei/total nuclei×100(%)

ES cells = test: Induction test of cardiomyocyte differentiation: autonomously beating EBs / total EBs; assay type: cell-based, mouse
Method: as §1
Namely, on gelatin-coated dishes, ES cells were maintained in an undifferentiated state in the presence of LIF, and suspension culture was started at day 0 in the absence of LIF to initiate differentiation of the ES cells, whereby EBs which had differentiated into cardiomyocytes were obtained at day 9. At days 5, 6, 7 and 8, G-CSF (2.5 ng/ml) was added and studied for its effect on EB formation. This effect was calculated by dividing the number of autonomously beating EBs by the total number of EBs.
Based on the above results, the optimum concentration of G-CSF was determined. The optimum concentration was studied by comparing the values calculated by dividing the number of autonomously beating EBs by the total number of EBs.

fetal hearts = test: Hematoxylin-eosin staining of fetal heart sections after G-CSF administration; assay type: in vivo, mouse; settings: G-CSF 100 ng/kg into uteri at 9.0 days of pregnancy; fetal hearts at 12.5 days
Method: as §4

[4] = system: fetal myocardial proliferation; test: In vivo effect of G-CSF on cardiogenesis: Phospho-Histon H3 immunostaining of fetal heart sections; set-up: species or system mouse
Method: G-CSF (2 ng) was directly administered into the uteri of pregnant mice at 9.0 days of pregnancy. At 13.5 days of pregnancy, fetuses were collected to prepare heart sections, which were then immunostained with Phospho-Histon H3. Phospho-Histon H3 is a dye that is specifically stained during the cell proliferation process.
Next, the labeling index was calculated by the following equation. Labeling index=Phospho-Histon H3 positive nuclei/total nuclei×100(%)

[5] = system: ES cell-derived cardiomyocytes; test: BrdU incorporation in ES cell-derived EBs (double immunostaining anti-BrdU / anti-mef2c); assay type: cell-based, mouse; settings: EBs at day 6, G-CSF 2.5 ng/mL, BrdU for 18 hours; vs untreated
Method: In addition, EBs at day 6 were used to prepare G-CSF (2.5 ng/mL)-treated and untreated groups, which were then incubated with BrdU for 18 hours.

[6] = system: common marmoset ES (CMES) cells; test: Spontaneous beating of common marmoset ES cell-derived EBs; assay type: cell-based; settings: G-CSF 2.5 ng/mL added at 4, 6 or 9 days after EB formation
Method: as §2, §3
At 4, 6 and 9 days after EB formation, G-CSF (2.5 ng/mL) was added to observe spontaneous beating. The best result was obtained upon addition at 6 days after EB formation, and the difference between G-CSF-treated and untreated groups became evident at 14 days after EB formation.

Molecule: Nc1ncn([C@@H]2O[C@H](CO)[C@@H](O)[C@H]2O)c(=O)n1 [5-azacytidine]
- percentage of troponin I-positive cells (cardiomyocytes) in EBs (human ES cells): 44%

Molecule: COC(=O)Nc1nc2ccc(C(=O)c3cccs3)cc2[nH]1 [Nocodazole, reference compound]
- effect on G-CSF-increased expression of cardiomyocyte markers (RT-PCR, FIG. 19) (cardiomyocyte markers [1]; EBs at day 6, G-CSF 7.5 ng/mL + nocodazole 0.2 μg/mL): cancelled the increased expression of the cardiomyocyte markers

Molecule: Noggin
- G-CSFR expression in EBs (immunostaining, FIG. 11) (G-CSFR expression; Noggin(+) group vs Noggin(−) group, EBs at 6 days after EB formation): G-CSFR expression is increased
- start of G-CSFR expression in EBs (RT-PCR, FIG. 10) (G-CSFR expression; Noggin(+) group, 0.15 μg/ml Noggin for 3 days): 5 days after EB formation

B1: human G-CSF: G-CSF of human origin used on CMES cells (protein, UniProt P09919 31-207, looked up)
Granulocyte …: TPLGPASSLPQSFLLKCLEQVRKIQGDGAALQEKLVSECATYKLCHPEELVLLGHSLGIPWAPLSSCPSQALQLAGCLSQLHSGLFLYQGLLQALEGISPELGPTLDTLQLDVADFATTIWQQMEELGMAPALQPTQGAMPAFASAFQRRAGGVLVASHLQSFLEVSYRVLRHLAQP
- expression of cardiomyocyte markers (RT-PCR, FIG. 21b) (cardiomyocyte markers [2]): strongly enhance the expression of the cardiomyocyte markers

B2: G-CSF: hematopoietic factor, differentiation-inducing factor for granulocyte lineage hematopoietic stem cells; agonist for G-CSF receptor (protein, listed as Homo sapiens)
chain: TPLGPASSLPQSFLLKCLEQVRKIQGDGAALQEKLCATYKLCHPEELVLLGHSLGIPWAPLSSCPSQALQLAGCLSQLHSGLFLYQGLLQALEGISPELGPTLDTLQLDVADFATTIWQQMEELGMAPALQPTQGAMPAFASAFQRRAGGVLVASHLQSFLEVSYRVLRHLAQP
- fetal myocardial proliferation (BrdU immunostaining, FIG. 4) ([3]; G-CSF 100 ng/kg into uteri at 9.0 days of pregnancy, BrdU i.p. at 9.5 days, fetuses collected at 12.5 days, vs PBS): promoted fetal myocardial proliferation
- BrdU labeling index (FIG. 6) ([3]; wild-type mice, BrdU at 10.5 days of pregnancy, analyzed at 12.5 days): enhance myocardial proliferation
- effect on EB formation (autonomously beating EBs / total EBs, FIG. 14) (ES cells; G-CSF 2.5 ng/ml added at days 5, 6, 7 or 8, result for addition at day 6): greatest effect on EB formation
- optimum timing of G-CSF administration (ES cells; G-CSF 2.5 ng/ml, days 5, 6, 7 and 8 compared): 6 days
- optimum concentration of G-CSF (autonomously beating EBs / total EBs, FIG. 17) (ES cells; added to EBs at day 6): 0.75 ng/mL
- heart section morphology (hematoxylin-eosin, FIG. 5a) (fetal hearts): extended trabecular layer
- fetal myocardial proliferation (Phospho-Histon H3 immunostaining, FIG. 7) ([4]; G-CSF 2 ng into uteri at 9.0 days of pregnancy, fetuses collected at 13.5 days): enhance fetal myocardial proliferation
- Phospho-Histon H3 labeling index (FIG. 8) ([4]; embryonic days 8.5 to 10.5): strongly enhance myocardial proliferation
- cell proliferation of cardiomyocytes (BrdU labeling index, FIG. 20) [5]: promote cell proliferation of cardiomyocytes
- effect of G-CSF addition on cardiogenesis (spontaneous beating, FIG. 21a) [6]: highest at 6 days after EB formation
- cardiac troponin I- and Nkx2.5-positive areas (immunostaining, FIG. 21c) (cardiomyocyte markers [2]; CMES-derived EBs, G-CSF-treated vs untreated): enhanced cardiac troponin I- and Nkx2.5-positive areas
- expression of cardiomyocyte markers (RT-PCR and immunostaining, FIG. 15) (cardiomyocyte markers [1]; EBs at day 9, G-CSF-treated group): all the cardiomyocyte markers showed increased expression levels
- expression of contractile proteins, transcription factors and secretory proteins (RT-PCR, FIG. 16) (cardiomyocyte markers [1]; G-CSF 0.25 to 25 ng/ml added to EBs at day 6, cell densities H (2×10^3 cell/ml) and L (5×10^4 cell/ml), vs control group): increased expression levels

B3: mouse G-CSF: G-CSF of mouse origin used on CMES cells (protein, UniProt P09920 31-208, looked up)
Granulocyte …: VPLVTVSALPPSLPLPRSFLLKSLEQVRKIQASGSVLLEQLCATYKLCHPEELVLLGHSLGIPKASLSGCSSQALQQTQCLSQLHSGLCLYQGLLQALSGISPALAPTLDLLQLDVANFATTIWQQMENLGVAPTVQPTQSAMPAFTSAFQRRAGGVLAISYLQGFLETARLALHHLA
- expression of cardiomyocyte markers (RT-PCR, FIG. 21b) (cardiomyocyte markers [2]): strongly enhance the expression of the cardiomyocyte markers
